According to patent publication US20260176352A1 (BIRD ROCK BIO, published 2026):
Several values for one entry are separate records, joined by “and”; a condition that tells them apart may be missing. Equal entries are not always repeated.

What was measured:
[1] = target: T1, native full length human CB1 receptor (cannabinoid 1 receptor) (human, UniProt P21554 1-472); test: cell-based or functional assay
[2] = target: T1, native full length human CB1 receptor …; test: flow cytometry, TRex-CHO full length native human CB1 cells; mean
Procedure: (§1) After being washed with 200 μL of FACS buffer twice, cells were incubated with secondary antibody for 30 minutes on ice. Cells were washed with 200 μL of FACS buffer twice and transferred to BD Falcon 5 mL tube and analyzed by FACS. Data analysis and measurement of binding affinity (KD) was performed using GraphPad Prism software.

[3] = target: T1, native full length human CB1 receptor …; test: flow cytometry, TRex-CHO full length native human CB1 cells; Exp 1
Procedure: as §1

[4] = target: T1, native full length human CB1 receptor …; test: flow cytometry, TRex-CHO full length native human CB1 cells; Exp 2
Procedure: as §1

[5] = target: T1, native full length human CB1 receptor …; test: cell-based or functional assay; remark: listed apart in the source
[6] = target: T1, native full length human CB1 receptor …; test: flow cytometry, Fab on TRex-CHO human CB1 cells
[7] = target: T1, native full length human CB1 receptor …; test: flow cytometry on TRex-CHO cells stably transfected with tetracycline inducible CB1, FITC-conjugated anti-human antibody [panel A]
[8] = target: T1, native full length human CB1 receptor …; test: cell-based or functional assay; remark: listed apart in the source
[9] = target: T1, native full length human CB1 receptor …; test: cell-based or functional assay; remark: listed apart in the source
[10] = target: T1, native full length human CB1 receptor …; test: cell-based or functional assay; remark: listed apart in the source
[11] = target: T2, TRex CHO A56 over-expressed CB1 (CB1 T210A/fusion partner) (UniProt P21554 1-472); test: flow cytometry, TRexCHO A56 cells
T2 construct: whole, on cells; The fusion partner stands inside the CB1 chain in place of ICL3, not at its end; also called Trex-CHO CB1 T210A/fusion partner; not shown: fusion partner that replaces ICL3
Procedure: (§2) After being washed with 200 μl of FACS buffer twice, cells were incubated with PE conjugated anti-human secondary antibody (Southern Biotech) for 30 minutes on ice. Cells were washed with 200 μl of FACS buffer twice and transferred to BD Falcon 5 ml tube and analyzed by flow cytometry (BD FACScalibur).

[12] = target: T1, native full length human CB1 receptor …; test: flow cytometry, TRexCHO A156 cells
Procedure: as §2

[13] = target: T1, native full length human CB1 receptor …; test: flow cytometry, TRex-CHO human CB1 cells; mean ± SD
Procedure: (§3) TRex CHO parental cells, and TRex-CHO cells stably transfected with tetracycline inducible human CB1, human CB2 or mouse CB1 expression constructs were harvested. […] Cells were then centrifuged at 4° C. at 1600 rpm for 3 minutes; supernatant was aspirated and cells were washed with 200 μL FACS buffer. The washing procedure was repeated twice. After the final wash, cells were re-suspended in FACS buffer containing PE-conjugated anti-human Fc secondary antibody (1:200 dilutions) and incubated at 4° C. for 30 minutes. Cells were washed with 200 μL FACS buffer twice and analyzed by flow cytometry (Guava). Data analysis and measurement of binding affinity (KD) was performed using GraphPad Prism software.

[14] = target: T1, native full length human CB1 receptor …; test: flow cytometry, TRex-CHO human CB1 cells; mean of batch 1
Procedure: as §3

[15] = target: T1, native full length human CB1 receptor …; test: flow cytometry, TRex-CHO human CB1 cells; mean of batch 2
Procedure: as §3

[16] = target: T1, native full length human CB1 receptor …; test: flow cytometry, TRex-CHO human CB1 cells; mean of batch 3
Procedure: as §3

mouse CB1 = target: T3, mouse CB1 (mouse, UniProt P47746 1-473); test: flow cytometry on TRex-CHO mouse CB1 cells, lower panel
T3 construct: whole, on cells; also called TRexCHO Mouse CB1
Procedure: as §2

human CB2 = target: T4, human CB2 (human, UniProt P34972 1-360); test: flow cytometry on TRex-CHO human CB2 cells, middle panel
T4 construct: whole, on cells; also called TRexCHO Human CB2
Procedure: as §2

[17] = target: T1, native full length human CB1 receptor …; test: flow cytometry on TRex-CHO cells with tetracycline inducible human CB1
Procedure: as §3

T3 sequence (P47746 whole entry): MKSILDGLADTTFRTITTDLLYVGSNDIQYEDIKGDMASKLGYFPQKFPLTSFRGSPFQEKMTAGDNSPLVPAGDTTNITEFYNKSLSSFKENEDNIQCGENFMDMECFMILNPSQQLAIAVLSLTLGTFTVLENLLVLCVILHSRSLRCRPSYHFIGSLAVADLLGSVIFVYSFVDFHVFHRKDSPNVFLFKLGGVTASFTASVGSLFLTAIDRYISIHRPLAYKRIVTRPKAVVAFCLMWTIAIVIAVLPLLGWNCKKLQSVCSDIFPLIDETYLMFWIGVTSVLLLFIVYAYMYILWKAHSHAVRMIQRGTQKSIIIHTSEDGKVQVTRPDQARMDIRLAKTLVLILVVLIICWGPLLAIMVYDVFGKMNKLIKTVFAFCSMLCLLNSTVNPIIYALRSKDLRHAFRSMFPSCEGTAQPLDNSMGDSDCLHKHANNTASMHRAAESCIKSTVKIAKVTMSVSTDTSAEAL
T4 sequence (P34972 whole entry): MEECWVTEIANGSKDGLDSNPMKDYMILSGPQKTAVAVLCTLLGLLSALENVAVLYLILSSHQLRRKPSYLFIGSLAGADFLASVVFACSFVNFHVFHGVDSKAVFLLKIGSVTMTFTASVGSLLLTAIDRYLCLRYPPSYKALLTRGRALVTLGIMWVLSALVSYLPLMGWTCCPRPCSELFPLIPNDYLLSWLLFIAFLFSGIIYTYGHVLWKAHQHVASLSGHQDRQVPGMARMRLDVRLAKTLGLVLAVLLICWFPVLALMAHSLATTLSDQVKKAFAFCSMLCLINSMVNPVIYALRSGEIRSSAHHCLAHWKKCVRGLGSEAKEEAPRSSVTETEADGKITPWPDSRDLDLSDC

B1: RY-HL-LC-A12 FACS4 (IgG4 S228P) (antibody, V domains shown)
VH: QVQLVQSGAEVKKPGSSVKVSCKASGYEFSYYWMNWVRQAPGQGLEWMGQIYPGDGETKYAQKFQGRVTITADKSTSTAYMELSSLRSEDTAVYYCARSHGNYLPYWGQGTLVTVSS
VL: EIVLTQSPATLSLSPGERATLSCRASQSVSSRYLHWYQQKPGQAPRLLIYGTSNLASGIPARFSGSGSGTDFTLTISRLEPEDFAVYYCHQYSRSPPTFGQGTKVEIKR
Exp 1 IC50 (nM), cAMP antagonist assay [1]: 48 nM | Exp 2 IC50 (nM), cAMP antagonist assay [1]: 33.9 nM | Exp 3 IC50 (nM), cAMP antagonist assay [1]: 42.4 nM | Kd [2]: 10.3 nM | Kd [3]: 11.5 nM | Kd [4]: 9.19 nM

B2: P1C4-h2 Fab (Fab, V domains shown)
VH: QVQLVQSGAEVKKPGSSVKVSCKASGYEFSYYWMNWVRQAPGQGLEWMGQIYPGDGETKYAQKFQGRVTITADKSTSTAYMELSSLRSEDTAVYYCARSHGNYLPYWGQGTLVTVSS
VL: EIVLTQSPATLSLSPGERATLSCRASQSVSSSYLHWYQQKPGQAPRLLIYSTSNLASGIPARFSGSGSGTDFTLTISRLEPEDFAVYYCHQYHRSPPTFGQGTKVEIK
notes: Fab; constant parts not described; also called humanized P1C4 Fab h2
IC50 cAMP assay [5]: 52 nM | Kd [6]: 14 nM | EC50 (read off the curve) [7]: 10 to 20 nM

B3: RY-HL-LC-C12 FACS4 (IgG4 S228P) (antibody, V domains shown)
VH: QVQLVQSGAEVKKPGSSVKVSCKASGYEFSYYWMNWVRQAPGQGLEWMGQIYPGDGETKYAQKFQGRVTITADKSTSTAYMELSSLRSEDTAVYYCARSHGNYLPYWGQGTLVTVSS
VL: EIVLTQSPATLSLSPGERATLSCRASQSVSSRYLHWYQQKPGQAPRLLIYSTSRLASGIPARFSGSGSGTDFTLTISRLEPEDFAVYYCHQYHRSPPTFGQGTKVEIKR
Exp 1 IC50 (nM), cAMP antagonist assay [1]: 76.8 nM | Exp 2 IC50 (nM), cAMP antagonist assay [1]: 52.5 nM | Exp 3 IC50 (nM), cAMP antagonist assay [1]: 43.1 nM | Kd [2]: 14.1 nM | Kd [3]: 14.4 nM | Kd [4]: 13.9 nM

B4: P1C4-h4 Fab (Fab, V domains shown)
VH: QVQLVQSGAEVKKPGSSVKVSCKASGYEFSYYWMNWVRQAPGQGLEWMGQIYPGDGETKYNGKFQGRVTITADKSTSTAYMELSSLRSEDTAVYYCARSHGNYLPYWGQGTLVTVSS
VL: EIVLTQSPATLSLSPGERATLSCRASQSVSSSYLHWYQQKPGQAPRLLIYSTSNLASGIPARFSGSGSGTDFTLTISRLEPEDFAVYYCHQYHRSPPTFGQGTKVEIK
notes: Fab; constant parts not described; also called humanized P1C4 Fab h4
IC50 cAMP assay [5]: 43 nM | IC50 (read off the curve), cAMP assay [panel B] [8]: ~40 nM | Kd [6]: 16.2 nM | EC50 (read off the curve) [7]: ~20 nM

B5: P1C4-h0-IgG1 (antibody, V domains shown)
VH: QVQLVQSGAEVKKPGSSVKVSCKASGGTFSYYWMNWVRQAPGQGLEWMGQIYPGDGETKYAQKFQGRVTITADKSTSTAYMELSSLRSEDTAVYYCARSHGNYLPYWGQGTLVTVSS
VL: EIVLTQSPATLSLSPGERATLSCRASQSVSSSYLHWYQQKPGQAPRLLIYSTSNLASGIPARFSGSGSGTDFTLTISRLEPEDFAVYYCHQYHRSPPTFGQGTKVEIKR
notes: also called P1C4-H0 No mutation; PA12R3-P1C4 HO (no back mutation)
IC50 (nM), cAMP assay [9]: 146 nM | cAMP IC50 (nM) Mean of Batch 1 [n] [10]: 158 nM | cAMP IC50 (nM) Mean of Batch 2 [n] [10]: 343 nM | Kd [11]: 4.5 nM | Kd [12]: 25 nM | Kd [13]: 24 nM | Kd [14]: 23 nM | Kd [15]: 24 nM | Kd [16]: 24 nM | binding result (mouse CB1): no binding (tested: about 300 nM (last point)) | binding result (human CB2): no binding (tested: about 300 nM (last point)) | EC50 (read off the curve) [17]: ~10 nM and ~20 nM

B6: RY-LC-B12 FACS3 (IgG4 S228P) (antibody, V domains shown)
VH: QVQLVQSGAEVKKPGSSVKVSCKASGYEFSYYWMNWVRQAPGQGLEWMGQIYPGDGETKYAQKFQGRVTITADKSTSTAYMELSSLRSEDTAVYYCARSHGNYLPYWGQGTLVTVSS
VL: EIVLTQSPATLSLSPGERATLSCRASQSVSSRYLHWYQQKPGQAPRLLIYSTSRLASGIPARFSGSGSGTDFTLTISRLEPEDFAVYYCQQYHRSPPTFGQGTKVEIKR
Exp 1 IC50 (nM), cAMP antagonist assay [1]: 40.9 nM | Exp 2 IC50 (nM), cAMP antagonist assay [1]: 32.9 nM | Exp 3 IC50 (nM), cAMP antagonist assay [1]: 39.7 nM | Kd [2]: 8.82 nM | Kd [3]: 8.75 nM | Kd [4]: 8.89 nM
